Source: patent US20090149389A1
Where no end group is shown, it is not given here. [ ]: non-standard residue; d: D form.

Assays:
Experiment in all cases: cell-based or functional assay
[1] = molecular target: PKC β 1 (h) (human (h)), P05771
[2] = molecular target: PKG1α (h) (human (h)), Q13976
MAPKAP kinase II (MK2) = MAPKAP kinase II (MK2) (UniProt P49137)
Chain of MAPKAP kinase II (MK2) (P49137 whole entry): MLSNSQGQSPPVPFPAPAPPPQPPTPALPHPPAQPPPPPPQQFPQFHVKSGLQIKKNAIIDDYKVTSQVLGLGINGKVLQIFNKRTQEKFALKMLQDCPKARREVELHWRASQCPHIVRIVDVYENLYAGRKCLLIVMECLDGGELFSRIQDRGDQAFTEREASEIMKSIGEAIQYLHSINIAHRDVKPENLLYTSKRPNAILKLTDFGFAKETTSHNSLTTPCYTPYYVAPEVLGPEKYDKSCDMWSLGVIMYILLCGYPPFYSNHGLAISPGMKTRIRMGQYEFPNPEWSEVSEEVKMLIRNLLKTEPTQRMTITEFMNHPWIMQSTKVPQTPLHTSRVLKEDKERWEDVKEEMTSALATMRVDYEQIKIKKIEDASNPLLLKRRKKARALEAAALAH

Chain of PKG1α (h) (human (h)), Q13976 (Q13976 whole entry): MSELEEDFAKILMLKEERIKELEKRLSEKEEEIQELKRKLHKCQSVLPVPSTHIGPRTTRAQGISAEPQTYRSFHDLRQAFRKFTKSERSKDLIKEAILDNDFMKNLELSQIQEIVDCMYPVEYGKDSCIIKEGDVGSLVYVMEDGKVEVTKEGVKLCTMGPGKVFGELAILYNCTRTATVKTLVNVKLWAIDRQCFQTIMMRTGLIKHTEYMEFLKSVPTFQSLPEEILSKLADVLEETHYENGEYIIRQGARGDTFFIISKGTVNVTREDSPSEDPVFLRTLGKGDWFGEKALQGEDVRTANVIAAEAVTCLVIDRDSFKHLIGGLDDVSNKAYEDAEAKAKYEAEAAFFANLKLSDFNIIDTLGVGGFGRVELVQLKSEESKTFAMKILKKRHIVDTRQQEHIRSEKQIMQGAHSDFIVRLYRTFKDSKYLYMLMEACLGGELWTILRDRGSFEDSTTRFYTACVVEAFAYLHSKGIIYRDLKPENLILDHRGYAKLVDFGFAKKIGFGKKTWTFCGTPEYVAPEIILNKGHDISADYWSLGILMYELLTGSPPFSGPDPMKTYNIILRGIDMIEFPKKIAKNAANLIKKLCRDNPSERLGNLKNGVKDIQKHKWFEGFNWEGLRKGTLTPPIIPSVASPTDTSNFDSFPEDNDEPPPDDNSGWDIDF
Chain of PKC β 1 (h) (human (h)), P05771 (P05771 whole entry): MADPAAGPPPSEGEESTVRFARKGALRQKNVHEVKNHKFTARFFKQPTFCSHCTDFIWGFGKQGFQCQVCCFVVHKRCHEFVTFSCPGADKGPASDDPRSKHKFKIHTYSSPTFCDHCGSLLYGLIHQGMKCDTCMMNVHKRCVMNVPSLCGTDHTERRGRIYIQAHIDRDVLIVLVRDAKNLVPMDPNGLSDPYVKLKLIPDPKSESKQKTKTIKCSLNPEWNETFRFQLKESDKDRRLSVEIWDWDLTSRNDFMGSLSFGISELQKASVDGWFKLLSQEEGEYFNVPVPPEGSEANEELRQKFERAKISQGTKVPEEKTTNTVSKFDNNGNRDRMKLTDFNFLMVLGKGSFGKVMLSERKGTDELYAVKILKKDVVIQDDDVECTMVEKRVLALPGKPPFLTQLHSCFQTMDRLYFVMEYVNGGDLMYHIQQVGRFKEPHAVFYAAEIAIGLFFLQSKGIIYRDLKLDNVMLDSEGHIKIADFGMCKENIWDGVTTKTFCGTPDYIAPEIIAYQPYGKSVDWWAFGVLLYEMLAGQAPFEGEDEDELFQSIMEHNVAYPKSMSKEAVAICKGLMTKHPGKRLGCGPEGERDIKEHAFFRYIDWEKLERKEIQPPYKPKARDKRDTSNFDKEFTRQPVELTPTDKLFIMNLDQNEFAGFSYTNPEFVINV

## KAFAKLAARLYRKALARQLGVAA
[1]
  Profile-1 @ = 100 µm (kinase profiler assay): 23
[2]
  Profile-1 @ = 100 µm (kinase profiler assay): 25

## KAL[dN]RQLGVAA (peptide, from a related filing) [KALdNRQLGVAA]
MAPKAP kinase II (MK2)
  % of … [SEQ ID NO: 124] Reaction Velocity at an Inhibitor Concentration of 100 µM: 95%

## WLRRIKAWLRRIKALNRQLGVAA
[1]
  Profile-1 @ = 30 µm (kinase profiler assay): 8
[2]
  Profile-1 @ = 30 µm (kinase profiler assay): 16

## KALN[dR]QLGVAA (peptide, from a related filing) [KALNdRQLGVAA]
MAPKAP kinase II (MK2)
  % of … [SEQ ID NO: 124] Reaction Velocity at an Inhibitor Concentration of 100 µM: 306%

## KA[dL]NRQLGVAA (peptide, from a related filing) [KAd…]
MAPKAP kinase II (MK2)
  % of … [SEQ ID NO: 124] Reaction Velocity at an Inhibitor Concentration of 100 µM: 146%

## KALNRQLG[dV]AA (peptide, from a related filing) [KALNRQLGdVAA]
MAPKAP kinase II (MK2)
  % of … [SEQ ID NO: 124] Reaction Velocity at an Inhibitor Concentration of 100 µM: 260%

## FAKLAARLYRKALARQLGVAA
[1]
  Profile-1 @ = 100 µm (kinase profiler assay): 73
[2]
  Profile-1 @ = 100 µm (kinase profiler assay): 12
